This note sets out measurements from PMC10716122.

For orientation: stoichiometry N means a count of units in the complex or per binding partner.

The target of experiment [1] is LINE-1 (L1) ORF1p (human) (UniProt Q9UN81). Kind of experiment: not stated; formation of the ORF1p trimer with or without cGAS, Supplementary Fig. 2o; method not given.
Experiment [2] deals with TRIM41 (UniProt Q8WV44). Put plainly: co-immunoprecipitation. Conditions: reference: wild-type cGAS.

With “LINE-1 (L1) ORF1p (from UniProt Q9UN81 1-338) (natural protein)”, the stoichiometry N in experiment [1] was 3.

Turning to cGAS (from UniProt Q8N884) S305A, in experiment [2] (sites S305), the “binding against the reference” value is recorded as “weaker”. Regarding cGAS (from UniProt Q8N884) S120A, the “binding against the reference” value in experiment [2] (sites S120) is listed as “weaker”.
